Experimental data reported in paper PMC9801259.

Target: OGG1 (UniProt O15527 1-345)
Assay: EMSA

Chain of OGG1 (O15527 whole entry): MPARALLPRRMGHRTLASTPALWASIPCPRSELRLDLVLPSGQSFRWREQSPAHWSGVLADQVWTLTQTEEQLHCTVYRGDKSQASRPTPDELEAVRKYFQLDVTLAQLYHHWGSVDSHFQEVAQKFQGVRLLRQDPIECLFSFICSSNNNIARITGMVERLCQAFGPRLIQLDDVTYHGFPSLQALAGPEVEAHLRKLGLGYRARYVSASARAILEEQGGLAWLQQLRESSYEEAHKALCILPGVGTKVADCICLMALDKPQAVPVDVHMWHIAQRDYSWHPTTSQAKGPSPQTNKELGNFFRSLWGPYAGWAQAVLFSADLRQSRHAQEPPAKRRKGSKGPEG

B1: 8-oxo(d)Gua and NF-kB motif probe (Cxcl2 promoter) (dsDNA)
DNA 1: TTCCCTGGTCCCCGGGCTTTTCCAGACATCG
DNA 2: CGATGTCTGGAAAAGCCCGGGGACCAGGGAA
modifications: 8-oxo-dG in antisense strand, printed CCAG*GGAA (G after the asterisk, position 28)
binding result: binds
